Molecular target: BA.2.12.1 S trimer (SARS-CoV-2) (UniProt P0DTC2)
Assay: cryo-EM structure

BA.2.12.1 S trimer (from UniProt P0DTC2 28-1208) (natural protein)
stoichiometry N: 3
